Target: ZFHD-FKBP fusion with 3 copies of the drug binding domain (3xFKBP)
Assay: cell-based or functional assay

Substance: FRB-TA fusion (FRB fragment of FRAP/mTOR fused to a portion of human NF-KB p65 as transcription activator)
- luciferase expression in mice (Xenogen imaging) after rapamycin 2 mg/kg IP, against pre-induction; Group 2, transcription factor unit under the CMV promoter: > 2 logs
- luciferase expression in mice (Xenogen imaging) after rapamycin 2 mg/kg IP, against pre-induction; Group 4, transcription factor unit under the TBG promoter: > 100 fold

Source: patent publication US20120058102A1
